In patent US20250215467A1, “L-THREONINE TRANSALDOLASES AND USES THEREOF” (University of Delaware, priority 2022, published 2025):
Like-named read-outs stand apart in the source and are kept apart here.

Tests used:
[1] = literature value; ObiH: 4-nitrophenylacetylaldehyde (15), discontinuous HPLC assay; read-out: reported L-Thr KM; cited from earlier work
[2] = TTA-ADH coupled assay at different L-Thr concentrations (apparent L-Thr KM and kcat); format: biochemical; details: for Km: apparent, phenylacetaldehyde (14) as aldehyde, ADH coupling, non-linear regression; for L-Thr kcat compared with ObiH: phenylacetaldehyde as the aldehyde substrate
Experimental: (§1) High-throughput screening of purified TTAs was performed with a TTA-ADH coupled assay using purified TTA and commercially available alcohol dehydrogenase from S. cerevisiae purchased from MilliporeSigma. Aldehyde stocks were prepared in 50-100 mM solutions in DMSO or acetonitrile. Reaction mixtures were prepared in a 96-well plate with 100 μL of 100 mM phosphate buffer pH 7.5, 0.5 mM NADH, 0.4 mM PLP, 15 mM MgCl2, and 100 mM L-Thr with the addition of 0.25 mM to 1 mM aldehyde depending on the background absorbance at 340 nm (Table 4), 10 U ScADH, and 0.25 μM purified TTA unless otherwise specified. Reactions were initiated with the addition of enzyme. […] The following controls were included for every assay: reaction mixture without aldehyde, without TTA, and without enzyme (TTA or ADH). Rates were calculated by identifying the linear region at the beginning of the kinetic run and converting the depletion in absorbance to the depletion of mM NADH using an NADH standard curve.
We next sought to determine the affinity of these enzymes for L-Thr, which we obtained by performing the TTA-ADH coupled assay at different L-Thr concentrations (FIG. 16b). […] Two differences between our assays were the substrate, phenylacetaldehyde (14) instead of 4-nitrophenylacetylaldehyde (15), and the assay format, ADH coupling rather than a discontinuous HPLC assay. Because a live cellular environment would also contain alcohol dehydrogenases for reduction of acetaldehyde, it is possible that the KM values that we are measuring using the TTA-ADH coupled assay may be more realistic for our envisioned applications.

[3] = TTA-ADH coupled assay, screen of purified TTAs on 2-nitro-benzaldehyde; format: biochemical; details: substrate 3, TTA-ADH coupled assay
Experimental: as §1
Once purified, we identified the putative TTAs with high activity and further characterized them for their L-Thr affinity and substrate scope. We first screened each purified enzyme using the TTA-ADH coupled assay with 2-nitro-benzaldehyde, 3, the best performing substrate from the screen of ObiH that was not a substrate of the ScADH. […] With this evidence as well as well-aligned, predicted AlphaFold structures, we assumed the impact of the SUMO tag would be minimal for all TTAs screened and moved forward with additional enzyme characterization.

[4] = TTA-ADH coupled assay, substrate scope of TTAs on aromatic aldehydes; format: biochemical; details: for activity on a set of aromatic aldehyde substrates (substrate scope): substrates 1, 3, 6, 7, 8, 12, 15
Experimental: as §1
We specifically selected substrates with ring substituents with different electron withdrawing properties (1, 3, 6, 7, 8), substituent size (12), and aldehyde chain length (15) to compare the activity of the putative TTAs to ObiH. We were also encouraged by the activity of PbTTA and KaTTA on vanillin and protocatechualdehyde which are substrates that would form products like commercially available therapeutic, Droxidopa (FIG. 18).
To explore the possibility that DbTTA and TmTTA are TTAs active on other related aldehydes, we sought to examine their activity with L-Thr and aldehyde substrates with different ring substituent position (2), bulkier, hydrophobic chemistry (10), and aldehyde chain length (14) using the TTA-ADH coupled assay.

[5] = In vitro assay over 20 h with HPLC analysis (amino acid substrate specificity, diastereomeric excess); format: biochemical; details: 3 as aldehyde substrate
Experimental: Metabolites of interest were quantified via high-performance liquid chromatography (HPLC) using an Agilent 1260 Infinity model equipped with a Zorbax Eclipse Plus-C18 column. To quantify aldehyde and β-OH-nsAAs, an initial mobile phase of solvent A/B=95/5 was used (solvent A, water+0.1% TFA; solvent B, acetonitrile+0.1% TFA) and maintained for 5 min. A gradient elution was performed (A/B) as follows: gradient from 95/5 to 50/50 for 5-12 min, gradient from 50/50 to 0/100 for 12-13 min, and gradient from 0/100 to 95/5 for 13-14 min. A flow rate of 1 mL min-1 was maintained, and absorption was monitored at 210, 250 and 280 nm.
We performed an in vitro assay over 20 h using 3 as the aldehyde substrate and either L-Thr, Glycine (Gly), or L-Serine (L-Ser) as the candidate amino acid. Since the TTA-ADH coupled assay is specific to L-Thr, we analyzed TTA activity via HPLC with a chemically synthesized β-OH-nsAA standard for the assumed product from 3.

B1: ObiH: known L-threonine transaldolase of obafluorin biosynthesis, SEQ ID NO: 30, Pseudomonas fluorescens, ARJ35753.1 (protein)
chain: MSNVKQQTAQIVDWLSSTLGKDHQYREDSLSLTANENYPSALVRLTSGSTAGAFYHCSFPFEVPAGEWHFPEPGHMNAIADQVRDLGKTLIGAQAFDWRPNGGSTAEQALMLAACKPGEGFVHFAHRDGGHFALESLAQKMGIEIFHLPVNPTSLLIDVAKLDEMVRRNPHIRIVILDQSFKLRWQPLAEIRSVLPDSCTLTYDMSHDGGLIMGGVFDSPLSCGADIVHGNTHKTIPGPQKGYIGFKSAQHPLLVDTSLWVCPHLQSNCHAEQLPPMWVAFKEMELFGRDYAAQIVSNAKTLARHLHELGLDVTGESFGFTQTHQVHFAVGDLQKALDLCVNSLHAGGIRSTNIEIPGKPGVHGIRLGVQAMTRRGMKEKDFEVVARFIADLYFKKTEPAKVAQQIKEFLQAFPLAPLAYSFDNYLDEELLAAVYQGAQR
modifications: Psuedomonas fluorescenes
In the case of B1, the Km [1] is listed as 40.2 ± 3.8 mM and the Km [2] is listed as 29.5 mM.

B2: BuTTA: TTA, SEQ ID NO: 34, Burkholderia ubonensis (protein, listed as Burkholderia ubonensis)
chain: MTDFAQAVVNPFVDEQRKSRLVEKISNIFDSLHSDFALDNLYRASHLSLTASENYPSRFVRTLGAGMQGGFYEFAPPYAANPGEWYFPDSGAQSSLVEKLASLGKQLFEANSFDWRPNGGSAAEQAVLLGTCARGDGFVHFAHKDGGHFALEELAQKVGVSIFHLPIEEKSLLIDVDRLATLIKDNPHIKLVILDQSFKLRWQPLLQIRQALPESVVLSYDASHDGGLIIGECLPQPLLFGADIVHGNTHKTIPGPQKGYIAFKNVDHPAMKHVSDWVCPHLQSNSHAELIAPMYIALVEMSLYGRSYAEQVIKNAKALAHALHAEGVRVSGESFGFTETHQVHVVVGSERKALELVTGTLALAGIRCNNIEIPGANGLFGLRLGVQALTRRGIKEHGMAEVARFLVRLILKNESPTAIRNEIASFLESYPINTLHYSLDAHYYTPSGIKLMEEVIA
With B2 the “activity on 2-nitro-benzaldehyde relative to ObiH” value [3] was “comparable to or better than ObiH”, the “activity on a set of aromatic aldehyde substrates (substrate scope)” value [4] was “relatively selective” and the “β-OH-nsAA formation using L-Ser or Gly” value [5] was “no β-OH-nsAA formation”. The “L-Thr kcat compared with ObiH” value [2] was “higher measured L-Thr kcat values than ObiH”.

B3: CsTTA: TTA, SEQ ID NO: 33, Chitiniphilus shinanonensis (protein, listed as Chitiniphilus shinanonensis)
chain: MTRTTPQARHVVERLNSVLGQDYRYREDCLSLTANENYPSALVRLAGSATAGAFYHCSFPFEVPPGEWYFPESGRMGELAQQLNELGRSLLGAGTFDWRPNGGSPAEQALMLAACKHGEGMVHFAHRDGGHFALENLAQKAGIDIFHLPVDPQTLLIDVARLDELVRRNPQIRIVILDQSFKLRWQPLAAIRKVLPPSCTLTYDTSHDGGLIMGGVFDSPLHCGADVIHGNTHKTVPGPQKGYIAFKSAEHPLLVDTSLWLCPHLQSNCHAELLPPMWVAFKEMEAFGHDYAPQVARNAKALAGHLHRLGFEVSGEAFGFTETHQVHFAVGDLQQALDLCMNTLHRGGIRSTNIEIPGKPGIQGIRLGVQAMTRRGLREDDFEQVARFIADLHFRKADPAGVAAQVAEFLRAFPLAPLHYSFDQELDHELLQSLIGEALR
With B3 the “activity on 2-nitro-benzaldehyde relative to ObiH” value [3] was “comparable to or better than ObiH”, the “β-OH-nsAA formation using L-Ser or Gly” value [5] was “no β-OH-nsAA formation” and the “L-Thr kcat compared with ObiH” value [2] was “higher measured L-Thr kcat values than ObiH”.

B4: KaTTA: L-threonine transaldolase, SEQ ID NO: 1, Kitasatospora aureofaciens, WP_033354341 (protein, listed as Kitasatospora aureofaciens)
chain: MDVLAALERKHSLNLFPIENRLSPRAAAALASDAVNRYPYSETDVAVYGDVSDLNAVYDHCVSLTKEFYGARHAYVQFLSGLHTMHTVLTAVTPPGGRVMVIAPEDGGHYATVTICQGFGYRVEYVPFDRQTLEIDYTALAERTAEHPADVIYLDASTVLRMPDARALRAAAPGAVLCLDASHLLGLLPAAPGTLVLDAGFDSISGSTHKTLPGPQKGLLVTNSDAIAEQVGARIPFTASSSHSASVGSLAITLEELLPHRGDYARQVIANARELARQLAARGFDVAGEAFGFTDTHQVWVHHPEGNTPHEWGRLLTATDIRTTTVVLPSTARSGLRLGTQELTRWGMKEDDMTTVAELLARLLLRGEQSRSVAADVRDLARSFPGVAFADRPAPLAVA
In the case of B4, the “activity on 2-nitro-benzaldehyde relative to ObiH” value [3] is reported as “comparable to or better than ObiH”, the “activity on vanillin and protocatechualdehyde” value ([4]; TTA-ADH coupled assay) is reported as “activity” and the “β-OH-nsAA formation using L-Ser or Gly” value [5] is reported as “no β-OH-nsAA formation”. The Km [2] was 19.1 mM.

B5: PiTTA: TTA, SEQ ID NO: 31, Pseudomonas sp. Irchel s3a18 (protein)
chain: MKQDESNVGPVIDWLAQTLGQDYKYRQDTLSLTANENYPSELVRLTSGSTAGAFYHCSFPFPVPLGEWHFPEPGQMNEIADDLRGLAKRMMGAQAFDWRPNGGSPAEQALMLAACKQGEGFVHFAHRDGGHFALEQLATKMGIEIFHLPVDPQSLLIDVAKLDDMVRRNPHIRIVILDQSFKLRWQPLAEIRAILPDSCTLTYDMSHDGGLILGGVFDSPLACGADIAHGNTHKTIPGPQKGFIAFKSAQHPLLVETSLWVCPHLQSNCHAELLPSMWAAFKEMEAFGPAYAHQMVRNAKALANQLHELGLNVSGESFGFTETHQVHFAVGDLQQALSMCVDSLHAGGIRSTNIEIPGKPGMHGIRLGVQAMTRRGMKEDDFRRVAGLIADLYFKRTEPARVASKVKELLGDFPLAPLAYSFDQQIDESRRRLLERGIQR
modifications: Pseudomonas_sp._Irchel_s3a18
notes: Irchel s3a18
In the case of B5, the “activity on 2-nitro-benzaldehyde relative to ObiH” value [3] is reported as “comparable to or better than ObiH”, the “activity on a set of aromatic aldehyde substrates (substrate scope)” value [4] is reported as “relatively selective” and the “β-OH-nsAA formation using L-Ser or Gly” value [5] is reported as “no β-OH-nsAA formation”. For the same molecule, the “L-Thr kcat compared with ObiH” value [2] was “higher measured L-Thr kcat values than ObiH”.
